# Data from patent US8357523B2, “Beta-glucosidase variant enzymes and related polynucleotides” (Codexis, Inc., priority 2009, dated 2013).
# Assay: High throughput cellobiose assay: fold improvement in cellobiase activity of CelA variants over a control enzyme (Tables 2A-2D, 3, 5, 6, 7)
# Type: biochemical
# Settings: 3.3 g/l cellobiose, 65° C. and pH 5 (incubation overnight); relative to Control #5, Variant No. 366 (SEQ ID NO: 9)
row,Molecule,Fold Improvement over Control Variant
1,"405 (protein, truncated; signal peptide F-10T) SAAITQEGAAPAPMLHPEKWPRPATQRLIDPAVEKRVDALLKQLSVEEKVGQVIQGDIGTITPEDLRKYPLGSILAGGDSGPNGDDRAPPKEWLDLADAFYRVSLEKRPGHTPIPVLFGIDAVHGHNNIGSATIFPHNIALGMTRDPELLRRIGEVTAEEMAATGIDWTFAPALSVPRDDRWGRTYEGFSEDPEIVASYSAAIVEGFQGKYGSKDFMAPGRAVACAKHFLADGGTDQGRDQGDARISEDELIRIHNAGYPPAIDAGVLTVMASFSSWQGIKHHGHKQLLTDVLKGQMGFNGFIVGDWNAHDQVPGCTKFNCPTSLIAGLDMYMAADSWKQLYENTLAQVKDGTIPMARLDDAVRRILRVKVLAGLFEKPAPKDRPGLPGLETLGSPEHRTVGREAVRKSLVLLKNDKGTLPLSPKARVLVAGDGADNIGKQSGGWTISWQGTGNRNDEFPGATSILGGIRDAVADAGGSVEFDVAGQYKTKPDVAIVVFGEEPYAEFRGDVETLEYQPDQKQDLTLLKKLKDQGIPVVAVFLSGRPMWVNPELNASDAFVAAWLPGTEGGGVADVLFTDKAGKVQYDFAGKLSYSWPRTAAQTTVNRGDADYNPLFAYGYGLTYKDKSKVGTLPEESGVPAEARQNAGIYFRAGALRLPGRFL",++ (++ = 1.1 to 2.0 fold improvement over control Variant No. 366)
2,"411 (protein, truncated; signal peptide F-10T) SAAITQEGAAPAAMLHPEKWPRPATQRLIDPAVEKRVDALLKQLSVEEKVGQVIQGDIGTITPEDLRKYPLGSILAGGDSGPNGDDRAPPKEWLDLADAFYRVSLEKRPGHTPIPVLFGIDAVHGHNNIGSATIFPHNIALGMTRDPELLRRIGEVTAEEMAATGIDWTFAPALSVPRDDRWGRTYEGFSEDPEIVASYSAAIVEGFQGKYGSKDFMAPGRAVACAKHFLADGGTDQGRDQGDARISEDELIRIHNAGYPPAIDAGVLTVMASFSSWQGIKHHGHKQLLTDVLKGQMGFNGFIVGDWNAHDQVPGCTKFNCPTSLIAGLDMYMAADSWKQLYENTLAQVKDGTIPMARLDDAVRRILRVKVSAGLFEKPAPKDRPGLPGLETLGSPEHRAVGREAVRKSLVLLKNDKGTLPLSPKARVLVAGDGADNIGKQSGGWTISWQGTGNRNDEFPGATSILGGIRDAVADAGGSVEFDVAGQYKTKPDVAIVVFGEEPYAEFRGDVETLEYQPDQKQDLTLLKKLKDQGIPVVAVFLSGRPMWVNPELNASDAFVAAWLPGTEGGGVADVLFTDKAGKVQHDFAGKLSYSWPRTAAQTTVNRGDADYNPLFAYGYGLTYKDKSKVGTLPEESGVPAEARQNAGIYFRAGALRLPGRFL",++ (++ = 1.1 to 2.0 fold improvement over control Variant No. 366)
3,"410 (protein, truncated; signal peptide F-10T) SAAITQEGAAPAAMLHPEKWPRPATQRLIDPAVEKRVDALLKQLSVEEKVGQVIQGDIGTITPEDLRKYPLGSILAGGDSGPNGDDRAPPKEWLDLADAFYRVSLEKRPGHTPIPVLFGIDAVHGHNNIGSATIFPHNIALGMTRDPELLRRIGEVTAEEMAATGIDWTFAPALSVPRDDRWGRTYEGFSEDPEIVASYSAAIVEGFQGKYGSKDFMAPGRAVACAKHFLADGGTDQGRDQGDARISEDELIRIHNAGYPPAIDAGVLTVMASFSSWQGIKHHGHKQLLTDVLKGQMGFNGFIVGDWNAHDQVPGCTKFNCPTSLIAGLDMYMAADSWKQLYENTLAQVKDGTIPMARLDDAVRRILRVKVLAGLFEKPAPKDRPGLPGLETLGSPEHRAVGREAVRKSLVLLKNDKGTLPLSPKARVLVAGDGADNIGKQSGGWTISWQGTGNRNDEFPGATSILGGIRDAVADAGGSVEFDVAGQYKTKPDVAIVVFGENPYAEFRGDVETLEYQPDQKQDLSLLKKLKDQGIPVVAVFLSGRPMWVNPELNASDAFVAAWLPGTEGGGVADVLFTDKAGKVQHDFAGKLSYSWPRTAAQTTVNRGDADYNPLFAYGYGLTYKDKSKVGTLPEESGVPAEARQNAGIYFRAGALRLPGRFL",+++ (+++ = 2.1 to 3.0 fold improvement over control Variant No. 366)
4,"409 (protein, truncated; signal peptide F-10T) SAAITQEGAAPAAMLHPEKWPRPATQRLIDPAVEKRVDALLKQLSVEEKVGQVIQGDIGTITPEDLRKYPLGSILAGGDSGPNGDDRAPPKEWLDLADAFYRVSLEKRDGHTPIPVLFGIDAVHGHNNIGSATIFPHNIALGMTRDTELLRRIGEVTAEEMAATGIDWTFAPALSVPRDDRWGRTYEGFSEDPEIVASYSAAIVEGFQGKYGSKDFMAPGRAVACAKHFLADGGTDQGRDQGDARISEDELIRIHNAGYPPAIDAGVLTVMASFSSWQGIKHHGHKQLLTDVLKGQMGFNGFIVGDWNAHDQVPGCTKFNCPTSLIAGLDMYMAADSWKQLYENTLAQVKDGTIPMARLDDAVRRILRVKVLAGLFEKPAPKDRPGLPGLETLGSPEHRAVGREAVRKSLVLLKNDKGTLPLSPKARVLVAGDGADNIGKQSGGWTISWQGTGNRNDEFPGATSILGGIRDAVADAGGSVEFDVAGQYKTKPDVAIVVFGEEPYAEFRGDVETLEYQPDQKQDLSLLKKLKDQGIPVVAVFLSGRPMWVNPELNASDAFVAAWLPGTEGGGVADVLFTDKAGKVQHDFAGKLSYSWPRTAAQTTVNRGDADYNPLFAYGYGLTYKDKSKVGTLPEESGVPAEARQNAGIYFRAGALRLPGRFL",+++ (+++ = 2.1 to 3.0 fold improvement over control Variant No. 366)
5,"412 (protein, truncated; signal peptide F-10T) SAAITQEGAAPAAMLHPEKWPRPATQRLIDPAVEKRVDALLKQLSVEEKVGQVIQGDIGTITPEDLRKYPLGSILAGGDSGPNGDDRAPPKEWLDLADAFYRVSLEKRPGHTPIPVLFGIDAVHGHNNIGSATIFPHNIALGMTRDPELLRRIGEVTAEEMAATGIDWTFAPALSVPRDDRWGRTYEGFSEDPEIVASYSAAIVEGFQGKYGSKDFMAPGRAVACAKHFLADGGTDQGRDQGDARISEDELIRIHNAGYPPAIDAGVLTVMASFSSWQGIKHHGHKQLLTDVLKGQMGFNGFIVGDWNAHDQVPGCTKFNCPTSLIAGLDMYMAADSWKQLYENTLAQVKDGTIPMARLDDAVRRILRVKVLAGLFEKPAPKDRPGLPGLETLGSPEHRAVGREAVRKSLVLLKNDKGTLPLSPKARVLVAGDGADNIGKQSGGWTISWQGTGNRNDEFPGATSILGGIRDAVADAGGSVEFDVAGQYKTKPDVAIVVFGENPYAEFQGDVETLEYQPDQKQDLTLLKKLKDQGIPVVAVFLSGRPMWVNPELNASDAFVAAWLPGTEGGGVADVLFTDKAGKVQHDFAGKLSYSWPRTAAQTTVNRGDADYNPLFAYGYGLTYKDKSKVGTLPEESGVPAEARQNAGIYFRAGALRLPGRFL",+++ (+++ = 2.1 to 3.0 fold improvement over control Variant No. 366)
6,"407 (protein, truncated; signal peptide F-10T) SAAITQEGAAPAAMLHPEKWPRPATQRLIDPAVEKRVDALLKQLSVEEKVGQVIQGDIGTITPEDLRKYPLGSILAGGDSGPNGDDRAPPKEWLDLADAFYRVSLEKRDGHTPIPVLFGIDAVHGHNNIGSATIFPHNIALGMTRDTELLRRIGEVTAEEMAATGIDWTFAPALSVPRDDRWGRTYEGFSEDPEIVASYSAAIVEGFQGKYGSKDFMAPGRAVACAKHFLADGGTDQGRDQGDARISEDELIRIHNAGYPPAIDAGVLTVMASFSSWQGIKHHGHKQLLTDVLKGQMGFNGFIVGDWNAHDQVPGCTKFNCPTSLIAGLDMYMAADSWKQLYENTLAQVKDGTIPMARLDDAVRRILRVKVLAGLFEKPAPKDRPGLPGLETLGSPEHRAVGREAVRKSLVLLKNDKGTLPLSPKARVLVAGDGADNIGKQSGGWTISWQGTGNRNDEFPGATSILGGIRDAVADAGGSVEFDVAGQYKTKPDVAIVVFGENPYAEFRGDVETLEYQPDQKQDLTLLKKLKDQGIPVVAVFLSGRPMWVNPELNASDAFVAAWLPGTEGGGVADVLFTDKAGKVQYDFAGKLSYSWPRTAAQTTVNRGDADYNPLFAYGYGLTYKDKSKVGTLPEESGVPAEARQNAGIYFRAGALRLPGRFL",+++ (+++ = 2.1 to 3.0 fold improvement over control Variant No. 366)
7,"408 (protein, truncated; signal peptide F-10T) SAAITQEGAAPAPMLHPEKWPRPATQRLIDPAVEKRVDALLKQLSVEEKVGQVIQGDIGTITPEDLRKYPLGSILAGGDSGPNGDDRAPPKEWLDLADAFYRVSLEKRPGHTPIPVLFGIDAVHGHNNIGSATIFPHNIALGMTRDTELLRRIGEVTAEEMAATGIDWTFAPALSVPRDDRWGRTYEGFSEDPEIVASYSAAIVEGFQGKYGSKDFMAPGRAVACGKHFLADGGTDQGRDQGDARISEDELIRIHNAGYPPAIDAGVLTVMASFSSWQGIKHHGHKQLLTDVLKGQMGFNGFIVGDWNAHDQVPGCTKFNCPTSLIAGLDMYMAADSWKQLYENTLAQVKDGTIPMARLDDAVRRILRVKVLAGLFEKPAPKDRPGLPGLETLGSPEHRAVGREAVRKSLVLLKNDKGTLPLSPKARVLVAGDGADNIGKQSGGWTISWQGTGNRNDEFPGATSILGGIRDAVADAGGSVEFDVAGQYKTKPDVAIVVFGEEPYAEFRGDVETLEYQPDQKQDLTLLKKLKDQGIPVVAVFLSGRPMWVNPELNASDAFVAAWLPGTEGGGVADVLFTDKAGKVQYDFAGKLSYSWPRTAAQTTVNRGDADYNPLFAYGYGLTYKDKSKVGTLPEESGVPAEARQNAGIYFRAGALRLPGRFL",+++ (+++ = 2.1 to 3.0 fold improvement over control Variant No. 366)
8,"406 (protein, truncated; signal peptide F-10T) SARITQEGAAPAPMLHPEKWPRPATQRLIDPAVEKRVDALLKQLSVEEKVGQVIQGDIGTITPEDLRKYPLGSILAGGDSGPNGDDRAPPKEWLDLADAFYRVSLEKRPGHTPIPVLFGIDAVHGHNNIGSATIFPHNIALGMTRDTELLRRIGEVTAGEMAATGIDWTFAPALSVPRDDRWGRTYEGFSEDPEIVASYSAAIVEGFQGKYGSKDFMAPGRAVACAKHFLADGGTDQGRDQGDARISEDELIRIHNAGYPPAIDAGVLTVMASFSSWQGIKHHGHKQLLTDVLKGQMGFNGFIVGDWNAHDQVPGCTKFNCPTSLIAGLDMYMAADSWKQLYENTLAQVKDGTIPMARLDDAVRRILRVKVLAGLFEKPAPKDRPGLPGLETLGSPEHRAVGREAVRKSLVLLKNDKGTLPLSPKARVLVAGDGADNIGKQSGGWTISWQGTGNRNDEFPGATSILGGIRDAVADAGGSVEFDVAGQYKTKPDVAIVVFGEEPYAEFRGDVETLEYQPDQKQDLTLLKKLKDQGIPVVAVFLSGRPMWVNPELNASDAFVAAWLPGTEGGGVADVLFTDKAGKVQHDFAGKLSYSWPRTAAQTTVNRGDADYNPLFAYGYGLTYKDKSKVGTLPEESGVPAEARQNAGIYFRAGALRLPGRFL",++ (++ = 1.1 to 2.0 fold improvement over control Variant No. 366)
